Source: article PMC4388654, “A Humanized Leucine Zipper-TRAIL Hybrid Induces Apoptosis of Tumors both In Vitro and In Vivo” (PLoS ONE, 2015)

Biological target: the molecule itself
Assay: AUC; sedimentation equilibrium; 0.5, 0.17 and 0.06 mg/ml in PBS, 20°C, 18,000 rpm, 24 h; Monomer-Nmer model (HeteroAnalysis); monomer to trimer

B1: ATF7-pII leucine zipper-TRAIL (ligand, human)
chain: VSSIEKKIEEITSQIIQISNEITLIRNEIAQIKQKGSGQRVAAHITGTRGRSNTLSSPNSKNEKALGRKINSWESSRSGHSFLSNLHLRNGELVIHEKGFYYIYSQTYFRFQEEIKENTKNDKQMVQYIYKYTSYPDPILLMKSARNSCWSKDAEYGLYSIYQGGIFELKENDRIFVSVTNEHLIDMDHEASFFGAFLVG
notes: linker between the leucine zipper and TRAIL; Tumor necrosis factor-Related Apoptosis-Inducing Ligand (TRAIL), human, Gln120-Gly281; No tag is stated; the calculated trimer mass of 69.0 kDa fits zipper + linker + TRAIL 120-281 without a tag; also called ATF7-TRAIL; ATF7 leucine zipper-TRAIL; source: P. pastoris (pGAPZα), secreted, purified (Co2+-metal chelating chromatography, 0 to 25 mM imidazole …)
stoichiometry N: 3
